Reference: IntAct's records for PubMed 25910212

B1: Sulfite oxidase, mitochondrial (Homo sapiens), P51687 (parent)
chain: MLLLHRAVVLRLQQACRLKSIPSRICIQACSTNDSFQPQRPSLTFSGDNSSTQGWRVMGTLLGLGAVLAYQDHRCRAAQESTHIYTKEEVSSHTSPETGIWVTLGSEVFDVTEFVDLHPGGPSKLMLAAGGPLEPFWALYAVHNQSHVRELLAQYKIGELNPEDKVAPTVETSDPYADDPVRHPALKVNSQRPFNAEPPPELLTENYITPNPIFFTRNHLPVPNLDPDTYRLHVVGAPGGQSLSLSLDDLHNFPRYEITVTLQCAGNRRSEMTQVKEVKGLEWRTGAISTARWAGARLCDVLAQAGHQLCETEAHVCFEGLDSDPTGTAYGASIPLARAMDPEAEVLLAYEMNGQPLPRDHGFPVRVVVPGVVGARHVKWLGRVSVQPEESYSHWQRRDYKGFSPSVDWETVDFDSAPSIQELPVQSAITEPRDGETVESGEVTIKGYAWSGGGRAVIRVDVSLDGGLTWQVAKLDGEEQRPRKAWAWRLWQLKAPVPAGQKELNIVCKAVDDGYNVQPDTVAPIWNLRGVLSNAWHRVHVYVSP
B2: Complement factor H-related protein 5 (Homo sapiens), Q9BXR6 (parent)
chain: MLLLFSVILISWVSTVGGEGTLCDFPKIHHGFLYDEEDYNPFSQVPTGEVFYYSCEYNFVSPSKSFWTRITCTEEGWSPTPKCLRMCSFPFVKNGHSESSGLIHLEGDTVQIICNTGYSLQNNEKNISCVERGWSTPPICSFTKGECHVPILEANVDAQPKKESYKVGDVLKFSCRKNLIRVGSDSVQCYQFGWSPNFPTCKGQVRSCGPPPQLSNGEVKEIRKEEYGHNEVVEYDCNPNFIINGPKKIQCVDGEWTTLPTCVEQVKTCGYIPELEYGYVQPSVPPYQHGVSVEVNCRNEYAMIGNNMITCINGIWTELPMCVATHQLKRCKIAGVNIKTLLKLSGKEFNHNSRIRYRCSDIFRYRHSVCINGKWNPEVDCTEKREQFCPPPPQIPNAQNMTTTVNYQDGEKVAVLCKENYLLPEAKEIVCKDGRWQSLPRCVESTAYCGPPPSINNGDTTSFPLSVYPPGSTVTYRCQSFYKLQGSVTVTCRNKQWSEPPRCLDPCVVSEENMNKNNIQLKWRNDGKLYAKTGDAVEFQCKFPHKAMISSPPFRAICQEGKFEYPICE
partner: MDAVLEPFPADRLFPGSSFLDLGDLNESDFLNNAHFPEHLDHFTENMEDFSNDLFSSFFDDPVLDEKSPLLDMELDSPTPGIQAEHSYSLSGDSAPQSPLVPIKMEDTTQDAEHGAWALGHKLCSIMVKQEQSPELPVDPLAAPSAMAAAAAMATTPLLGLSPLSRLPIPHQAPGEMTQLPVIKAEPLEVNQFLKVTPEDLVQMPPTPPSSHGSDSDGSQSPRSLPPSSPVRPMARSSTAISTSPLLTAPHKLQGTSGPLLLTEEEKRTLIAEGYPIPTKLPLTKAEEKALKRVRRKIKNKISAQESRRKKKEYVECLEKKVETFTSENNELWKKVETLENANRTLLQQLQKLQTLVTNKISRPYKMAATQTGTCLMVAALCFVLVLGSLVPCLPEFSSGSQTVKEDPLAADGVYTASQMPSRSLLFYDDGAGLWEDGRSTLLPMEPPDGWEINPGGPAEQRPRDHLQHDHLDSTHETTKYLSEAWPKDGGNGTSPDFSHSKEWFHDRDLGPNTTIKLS
B3: Inactive peptidyl-prolyl cis-trans isomerase FKBP6 (Homo sapiens), O75344 (parent)
chain: MGGSALNQGVLEGDDAPGQSLYERLSQRMLDISGDRGVLKDVIREGAGDLVAPDASVLVKYSGYLEHMDRPFDSNYFRKTPRLMKLGEDITLWGMELGLLSMRRGELARFLFKPNYAYGTLGCPPLIPPNTTVLFEIELLDFLDCAESDKFCALSAEQQDQFPLQKVLKVAATEREFGNYLFRQNRFYDAKVRYKRALLLLRRRSAPPEEQHLVEAAKLPVLLNLSFTYLKLDRPTIALCYGEQALIIDQKNAKALFRCGQACLLLTEYQKARDFLVRAQKEQPFNHDINNELKKLASCYRDYVDKEKEMWHRMFAPCGDGSTAGES
partner: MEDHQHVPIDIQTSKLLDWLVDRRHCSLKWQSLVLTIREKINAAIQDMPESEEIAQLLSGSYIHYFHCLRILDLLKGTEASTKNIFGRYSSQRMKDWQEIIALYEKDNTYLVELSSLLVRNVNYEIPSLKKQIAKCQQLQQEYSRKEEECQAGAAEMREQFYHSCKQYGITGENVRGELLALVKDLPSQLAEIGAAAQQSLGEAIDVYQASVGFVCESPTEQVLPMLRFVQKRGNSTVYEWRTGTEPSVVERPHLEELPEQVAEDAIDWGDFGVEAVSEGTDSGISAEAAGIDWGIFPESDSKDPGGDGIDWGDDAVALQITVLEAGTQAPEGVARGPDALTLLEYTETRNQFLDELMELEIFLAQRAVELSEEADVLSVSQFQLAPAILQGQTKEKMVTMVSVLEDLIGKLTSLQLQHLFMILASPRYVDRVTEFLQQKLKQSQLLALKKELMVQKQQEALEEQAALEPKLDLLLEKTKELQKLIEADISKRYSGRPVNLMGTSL
B4: 5-aminolevulinate synthase, erythroid-specific, mitochondrial (Homo sapiens), P22557-2 (parent)
chain: MVTAAMLLQCCPVLARGPTSLLGKVVKTHQFLFGIGRCPILATQGPNCSQIHLKATKAGGDSPSWAKGHCPFMLSELQDGKSKIVQKAAPEVQEDVKAFKTGNYVFSYDQFFRDKIMEKKQDHTYRVFKTVNRWADAYPFAQHFSEASVASKDVSVWCSNDYLGMSRHPQVLQATQETLQRHGAGAGGTRNISGTSKFHVELEQELAELHQKDSALLFSSCFVANDSTLFTLAKILPGCEIYSDAGNHASMIQGIRNSGAAKFVFRHNDPDHLKKLLEKSNPKIPKIVAFETVHSMDGAICPLEELCDVSHQYGALTFVDEVHAVGLYGSRGAGIGERDGIMHKIDIISGTLGKAFGCVGGYIASTRDLVDMVRSYAAGFIFTTSLPPMVLSGALESVRLLKGEEGQALRRAHQRNVKHMRQLLMDRGLPVIPCPSHIIPIRVGNAALNSKLCDLLLSKHGIYVQAINYPTVPRGEELLRLAPSPHHSPQMMEDFVEKLLLAWTAVGLPLQDVSVAACNFCRRPVHFELMSEWERSYFGNMGPQYVTTYA
partner: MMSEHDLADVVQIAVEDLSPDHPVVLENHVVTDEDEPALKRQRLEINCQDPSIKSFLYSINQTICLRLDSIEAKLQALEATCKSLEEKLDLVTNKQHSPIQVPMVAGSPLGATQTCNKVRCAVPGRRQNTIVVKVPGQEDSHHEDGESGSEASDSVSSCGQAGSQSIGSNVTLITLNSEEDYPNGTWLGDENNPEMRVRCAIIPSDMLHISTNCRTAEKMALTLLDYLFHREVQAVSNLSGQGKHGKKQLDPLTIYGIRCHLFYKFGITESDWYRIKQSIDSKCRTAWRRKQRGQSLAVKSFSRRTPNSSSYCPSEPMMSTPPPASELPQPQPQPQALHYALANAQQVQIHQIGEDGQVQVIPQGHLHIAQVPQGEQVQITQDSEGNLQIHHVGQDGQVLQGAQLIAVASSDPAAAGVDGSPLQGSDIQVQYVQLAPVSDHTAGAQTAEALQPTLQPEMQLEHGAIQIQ

Variants of: B1
Conditions: with nup62_human NUP62, P37198
nup62_human NUP62, P37198, sequence (P37198 whole entry): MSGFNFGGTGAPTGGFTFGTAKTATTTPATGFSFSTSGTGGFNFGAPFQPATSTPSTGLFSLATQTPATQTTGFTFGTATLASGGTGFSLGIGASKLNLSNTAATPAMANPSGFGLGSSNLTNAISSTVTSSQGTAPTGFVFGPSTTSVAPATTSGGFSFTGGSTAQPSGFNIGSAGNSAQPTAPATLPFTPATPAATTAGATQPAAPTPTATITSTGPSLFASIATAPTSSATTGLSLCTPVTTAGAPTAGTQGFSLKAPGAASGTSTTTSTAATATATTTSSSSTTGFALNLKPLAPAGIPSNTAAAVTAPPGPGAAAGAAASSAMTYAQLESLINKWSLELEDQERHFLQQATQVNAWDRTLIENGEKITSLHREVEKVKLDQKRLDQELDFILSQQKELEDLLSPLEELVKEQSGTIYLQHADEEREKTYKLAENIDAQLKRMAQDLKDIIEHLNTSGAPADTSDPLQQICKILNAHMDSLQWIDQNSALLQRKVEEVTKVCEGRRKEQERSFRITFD

Row | effect of a mutation on the interaction | Variant
1 | with no effect | MLLLHRAVVLRLQQACRLKSIPSRICIQACSTNDSFQPQRPSLTFSGDNSSTQGWRVMGTLLGLGAVLAYQDHRCRAAQESTHIYTKEEVSSHTSPETGIWVTLGSEVFDVTEFVDLHPGGPSKLMLAAGGPLEPFWALYAVHNQSHVRELLAQYKIGELNPEDKVAPTVETSDPYADDPVRHPALKVNSQRPFNAEPPPELLTENYITPNPIFFTRNHLPVPNLDPDTYRLHVVGAPGGQSLSLSLDDLHNFPRYEITVTLQCAGNRRSEMTQVKEVKGLEWRTGAISTARWAGARLCDVLAQAGHQLCETEAHVCFEGLDSDPTGTAYGASIPLARAMDPEAEVLLAYEMNGQPLPRDHGFPVRVVVPGVVGARHVKWLGRVSVQPEESYSHWRRRDYKGFSPSVDWETVDFDSAPSIQELPVQSAITEPRDGETVESGEVTIKGYAWSGGGRAVIRVDVSLDGGLTWQVAKLDGEEQRPRKAWAWRLWQLKAPVPAGQKELNIVCKAVDDGYNVQPDTVAPIWNLRGVLSNAWHRVHVYVSP [Q396R]
2 | disrupting interaction strength | MLLLHRAVVLRLQQACRLKSIPSRICIQACSTNDSFQPQRPSLTFSGDNSSTQGWRVMGTLLGLGAVLAYQDHRCRAAQESTHIYTKEEVSSHTSPETGIWVTLGSEVFDVTEFVDLHPGGPSKLMLAAGGPLEPFWALYAVHNQSHVRELLAQYKIGELNPEDKVAPTVETSDPYADDPVRHPALKVNSQRPFNAEPPPELLTENYITPNPIFFTRNHLPVPNLDPDTYRLHVVGAPGGQSLSLSLDDLHNFPRYEITVTLQCAGNRRSEMTQVKEVKGLEWRTGAISTARWAGARLCDVLAQAGHQLCETEAHVCFEGLDSDPTGTAYGASIPLARAMDPEAEVLLAYEMNGQPLPRDHGFPVRVVVPGVVGARHVKWLGRVSVQPEESYSHWQRRDYKGFSPSVDWETVDFDSAPSIQELPVQSAITEPRDGETVESGEVTIKGYARSGGGRAVIRVDVSLDGGLTWQVAKLDGEEQRPRKAWAWRLWQLKAPVPAGQKELNIVCKAVDDGYNVQPDTVAPIWNLRGVLSNAWHRVHVYVSP [W450R]

Variants of: B2
Conditions: with cr3l1_human CREB3L1, Q96BA8

Row | effect of a mutation on the interaction | Variant
3 | with no effect | MLLLFSVILISWVSTVGGEGTLCDFPKIHHGFLYDEEDYNPFSQVPTGEVFYYSCEYNFVSPSKSFWTRITCTEEGWSPTPKCLRMCSFPFVKNGHSESSGLIHLEGDTVQIICNTGYSLQNNEKNISCVERGWSTPPICSFTNGECHVPILEANVDAQPKKESYKVGDVLKFSCRKNLIRVGSDSVQCYQFGWSPNFPTCKGQVRSCGPPPQLSNGEVKEIRKEEYGHNEVVEYDCNPNFIINGPKKIQCVDGEWTTLPTCVEQVKTCGYIPELEYGYVQPSVPPYQHGVSVEVNCRNEYAMIGNNMITCINGIWTELPMCVATHQLKRCKIAGVNIKTLLKLSGKEFNHNSRIRYRCSDIFRYRHSVCINGKWNPEVDCTEKREQFCPPPPQIPNAQNMTTTVNYQDGEKVAVLCKENYLLPEAKEIVCKDGRWQSLPRCVESTAYCGPPPSINNGDTTSFPLSVYPPGSTVTYRCQSFYKLQGSVTVTCRNKQWSEPPRCLDPCVVSEENMNKNNIQLKWRNDGKLYAKTGDAVEFQCKFPHKAMISSPPFRAICQEGKFEYPICE [K144N]

Variants of: B3
Conditions: with ck5p3_human CDK5RAP3, Q96JB5

Row | effect of a mutation on the interaction | Variant
4 | with no effect | MGGSALNQGVLEGDDAPGQSLYERLSQRMLDISGDRGVLKDVIREGAGDLVAPDASVLVKYSGYLEHMDRPFDSNYFRKTPRLMKLGEDITLWGMELGLLSMRRGELARFLFKPNYAYGTLGCPPLIPPNTTVLFEIELLDFLDCAESDKFCALSAEQQDQFPLQKVLKVAATEREFGNYLFRQNRFYDAKVRYKRALLLLHRRSAPPEEQHLVEAAKLPVLLNLSFTYLKLDRPTIALCYGEQALIIDQKNAKALFRCGQACLLLTEYQKARDFLVRAQKEQPFNHDINNELKKLASCYRDYVDKEKEMWHRMFAPCGDGSTAGES [R202H]
5 | disrupting interaction strength | MGGSALNQGVLEGDDAPGQSLYERLSQRMLDISGDRGVLKDVIREGAGDLVAPDASVLVKYSGYLEHMDRPLDSNYFRKTPRLMKLGEDITLWGMELGLLSMRRGELARFLFKPNYAYGTLGCPPLIPPNTTVLFEIELLDFLDCAESDKFCALSAEQQDQFPLQKVLKVAATEREFGNYLFRQNRFYDAKVRYKRALLLLRRRSAPPEEQHLVEAAKLPVLLNLSFTYLKLDRPTIALCYGEQALIIDQKNAKALFRCGQACLLLTEYQKARDFLVRAQKEQPFNHDINNELKKLASCYRDYVDKEKEMWHRMFAPCGDGSTAGES [F72L]

Variants of: B4
Conditions: with BANP

Row | effect of a mutation on the interaction | Variant
6 | disrupting interaction strength | MVTAAMLLQCCPVLARGPTSLLGKVVKTHQFLFGIGRCPILATQGPNCSQIHLKATKAGGDSPSWAKGHCPFMLSELQDGKSKIVQKAAPEVQEDVKAFKTGNYVFSYDQFFRDKIMEKKQDHTYRVFKTVNRWADAYPFAQHFSEASVASKDVSVWCSNDYLGMSRHPQVLQATQETLQRHGAGAGGTRNISGTSKFHVELEQELAELHQKDSALLFSSCFVANDSTLFTLAKILPGCEIYSDAGNHASMIQGIRNSGAAKFVFRHNDPDHLKKLLEKSNPKIPKIVAFETVHSMDGAICPLEELCDVSHQYGALTFVDEVHAVGLYGSRGAGIGERDGIMHKIDIISGTLGKAFGCVGGYIASTRDLVDMVRSYAAGFIFTTSLPPMVLSGALESVRLLKGEEGQALRQAHQRNVKHMRQLLMDRGLPVIPCPSHIIPIRVGNAALNSKLCDLLLSKHGIYVQAINYPTVPRGEELLRLAPSPHHSPQMMEDFVEKLLLAWTAVGLPLQDVSVAACNFCRRPVHFELMSEWERSYFGNMGPQYVTTYA [R411Q]
